The values below are quoted from earlier work in paper PMC5386376.

One may read the Kd as the equilibrium constant for the complex coming apart.

In this data set the target is Egl1 (Caenorhabditis elegans) (UniProt O61667).
Sequence of Egl1 (Caenorhabditis elegans) (O61667 whole entry): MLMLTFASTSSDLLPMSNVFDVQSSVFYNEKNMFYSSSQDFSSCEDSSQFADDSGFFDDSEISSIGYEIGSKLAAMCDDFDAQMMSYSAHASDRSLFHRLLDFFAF

Sequence of Bcl-2 (P10415 whole entry): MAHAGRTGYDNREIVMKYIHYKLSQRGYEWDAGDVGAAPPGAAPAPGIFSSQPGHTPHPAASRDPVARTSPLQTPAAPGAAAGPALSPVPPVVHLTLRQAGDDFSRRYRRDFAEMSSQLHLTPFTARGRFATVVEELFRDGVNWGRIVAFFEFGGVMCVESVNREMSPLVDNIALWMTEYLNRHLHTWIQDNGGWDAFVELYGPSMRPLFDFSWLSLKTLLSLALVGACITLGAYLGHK

In the case of Bcl-2 (from UniProt P10415), the Kd was 7.1 µM.
